Source: paper PMC5380656 (The Journal of Allergy and Clinical Immunology, 2017)

Columns and labels:
[1] = target: T1, staphylococcal enterotoxin D (Staphylococcus aureus, strain , UniProt P20723); experiment: ELISA
T1 construct: source: bought: Toxin Technology

[2] = target: T2, staphylococcal enterotoxin C1 (Staphylococcus aureus, strain , UniProt P01553); experiment: ELISA; conditions: both partners purified
T2 construct: source: bought: Toxin Technology

[3] = target: T3, staphylococcal enterotoxin E (Staphylococcus aureus, strain , UniProt P12993); experiment: ELISA
T3 construct: source: bought: Toxin Technology

[4] = target: T4, staphylococcal enterotoxin A (Staphylococcus aureus, strain , UniProt P0A0L2); experiment: ELISA
T4 construct: source: bought: Toxin Technology

[5] = target: biotin-labeled staphylococcal enterotoxin E (Staphylococcus aureus, strain , UniProt P12993, biotin (site not stated)); experiment: SPR; Biacore T200; […]; 25°C; […]; conditions: both partners purified
[6] = target: biotin-labeled staphylococcal enterotoxin A (Staphylococcus aureus, strain , UniProt P0A0L2, biotin (site not stated)); experiment: SPR; Biacore T200; […]; 25°C; […]; conditions: both partners purified

B1: anti-SEE antibody HPK-014_1G2, recombinant IgG1 (antibody, V domains shown)
VH: QVQLVESGGGVVPPGGSLRLSCATSGFKFNDYDMHWVRQAPGKGLEWVASIRYHGNKDYYADSVKGRFTISRDNSKNTLSLQMNSLRPEDTAIFYCARDRAQGIVAAAGTSFGYWGQGTLVTVSS
VL: SYELTQPPSVSVSPGQTARITCSADALPKQYVYWYQQKSGQAPVLVMYKDSERPSGIPERFSGSTSGSTVMLTISGVQEEDEAVYYCQSGDTSGFDPDVAFGGGTKLTVL
notes: also called 1G2 IgG1
B1: no binding ([1]; both partners purified); binds [2]; binds ([3]; one partner purified). B1: no binding ([4]; both partners purified); binds [5].

B2: anti-SEE antibody HPK-014_1G2, recombinant IgE (antibody, V domains shown)
VH: QVQLVESGGGVVPPGGSLRLSCATSGFKFNDYDMHWVRQAPGKGLEWVASIRYHGNKDYYADSVKGRFTISRDNSKNTLSLQMNSLRPEDTAIFYCARDRAQGIVAAAGTSFGYWGQGTLVTVSS
VL: SYELTQPPSVSVSPGQTARITCSADALPKQYVYWYQQKSGQAPVLVMYKDSERPSGIPERFSGSTSGSTVMLTISGVQEEDEAVYYCQSGDTSGFDPDVAFGGGTKLTVL
notes: also called 1G2 IgE; anti-SEE IgE 1G2
B2: binds ([3]; both partners purified).

B3: anti-SEE antibody HPK-014_1G2, Fab (Fab, V domains shown)
VH: QVQLVESGGGVVPPGGSLRLSCATSGFKFNDYDMHWVRQAPGKGLEWVASIRYHGNKDYYADSVKGRFTISRDNSKNTLSLQMNSLRPEDTAIFYCARDRAQGIVAAAGTSFGYWGQGTLVTVSS
VL: SYELTQPPSVSVSPGQTARITCSADALPKQYVYWYQQKSGQAPVLVMYKDSERPSGIPERFSGSTSGSTVMLTISGVQEEDEAVYYCQSGDTSGFDPDVAFGGGTKLTVL
notes: source: Expi293, purified (LambdaFabSelect agarose)
B3: binds ([3]; both partners purified).

B4: anti-SEA antibody 1F3, recombinant IgG1 (antibody, V domains shown)
VH: QVQLVESGTDVKKPGSSVKVSCKTSGGTFGDHGITWVRQAPEKGLEYVGRIIPNPGTAYHAQKFQGRVTITADESTGTAYLELSRLSFDDTAVYYCARGMTGYVGAYDYWGQGTLVTVSS
VL: QSVLTQPPSASGTPGQRVSISCSGSSSNIGSNSVSWYQLLPGTAPKLLIYFSHQRPSGVPDRFSASKSGTSASLAISDLQPEDEADYYCASWDDRLNGPVFGGGTKLTVL
notes: also called 1F3 IgG1; HPK-016_1F3
B4: no binding ([3]; both partners purified); binds ([4]; both partners purified); binds [6].

B5: anti-SED antibody HPK-018_2D6, recombinant IgG1 (antibody, V domains shown)
VH: QVQLVQSGGGLVQPGRSLRLSCRASGFTFGEYAMSWVRQAPGKGVEWVSFIRSRTYGATTEYAASVKGRFTISRDDSESIVYLQMNSLKTEDTAVYYCTTYCSSTSCQIDYWGQGTLVTVSS
VL: QSALTQPPSASALLGASIKLTCTLSSEHSTYIIEWFQQRPGRSPQYIMDVKSDGSYTKGDGIPDRFMGSSSGADRYLTLSNLQSDDEAEYYCGESHTIDGQVGYVFGTGTKVTVL
notes: source: HEK 293T, transfected, culture supernatant
B5: binds ([1]; one partner purified).

B6: anti-SED antibody HPK-014_1A4, recombinant IgG1 (antibody, V domains shown)
VH: EVQLLESGGGLVQPGGSLRLSCAASGFNFDSYAMSWVRQAPGKGLEWVSSISSSGGATYYADSVKGRSTISRDNSKNTVSLQMNSLRAEDTAVYYCAKKRRYDAVTGYLFDMWGQGTMVTVSS
VL: DIVMTQSPFSLAVSLGERATMNCKSSQSVLHSSNNENYLAWYQQKPGQPPKLLIYWASTRESGVPDRFSGSGSGTDFTLTISSLQAEDVAVYYCQQFYSPAPYTFGQGTKLEIK
notes: as for B5
B6: binds ([1]; one partner purified).

B7: anti-SEA antibody HPK-018_1B6, recombinant IgG1 (antibody, V domains shown)
VH: EVQLVESGGEVKKPGASVKVSCKTSGYTFSSYYMHWVRQAPGQGLEWMGVINPSGGSIKYAQKFQGRVTMTRDTSTTTIYMDLSSLRSDDTAVYYCAYWGADGFDIWGQGTMVTVSS
VL: QSVLTQPPSASGTPGQRVTISCSGSSSNIGSNSVNWYQQVPGTAPKLLTYGNNQRRSGVPDRFSGSKSGTSASLAISGLQSEDEADYSCAVWDDSLSAWVFGGGTKLTVL
notes: as for B5
B7: binds ([4]; one partner purified).

B8: anti-SEE antibody HPK-016_203, recombinant IgG1 (antibody, V domains shown)
VH: EVQLVESGAEVKKPGESLKISCKGSGNTFTNYWIAWVRQRPGKGLEWMGIIYPGDSDTRYSLSFQGQVTISVDKSINTAYLQWSSLRASDTAIYFCVRHCSGGRCSSAPLDSWGQGTLVTVSS
VL: NFMLTQPPSVSESPGKTVTISCTRSSGSIGTYYVHWYQQRPGSAPTTLIYDDSHRPSGVPDRFSGSVDSSSNSASLIISGLKTEDEADYYCLSHDTTNFVFGGGTKLTVL
notes: also called 203 IgG1
B8: no binding ([1]; both partners purified); binds [2]; binds ([3]; one partner purified). B8: no binding ([4]; both partners purified); binds [5].
